This note sets out measurements from US20150259422A1 (UNIVERSITY OF NORTH CAROLINA AT CHAPEL HILL, published 2015).

The EC50 is the concentration that produces a half-maximal response. Low readings indicate a more potent agent, high ones a less potent agent.

Assay [1] deals with T1, alphaVbeta3 integrin, native human, on rhabdomyosarcoma (RD) cells and on human umbilical vein endothelial … (human, UniProt P06756 31-1048; P05106 27-788).
T1 construct: whole, on cells; also called αVβ3; native human β3
T1 sequence (P06756 31-1048, chain 1 of 2): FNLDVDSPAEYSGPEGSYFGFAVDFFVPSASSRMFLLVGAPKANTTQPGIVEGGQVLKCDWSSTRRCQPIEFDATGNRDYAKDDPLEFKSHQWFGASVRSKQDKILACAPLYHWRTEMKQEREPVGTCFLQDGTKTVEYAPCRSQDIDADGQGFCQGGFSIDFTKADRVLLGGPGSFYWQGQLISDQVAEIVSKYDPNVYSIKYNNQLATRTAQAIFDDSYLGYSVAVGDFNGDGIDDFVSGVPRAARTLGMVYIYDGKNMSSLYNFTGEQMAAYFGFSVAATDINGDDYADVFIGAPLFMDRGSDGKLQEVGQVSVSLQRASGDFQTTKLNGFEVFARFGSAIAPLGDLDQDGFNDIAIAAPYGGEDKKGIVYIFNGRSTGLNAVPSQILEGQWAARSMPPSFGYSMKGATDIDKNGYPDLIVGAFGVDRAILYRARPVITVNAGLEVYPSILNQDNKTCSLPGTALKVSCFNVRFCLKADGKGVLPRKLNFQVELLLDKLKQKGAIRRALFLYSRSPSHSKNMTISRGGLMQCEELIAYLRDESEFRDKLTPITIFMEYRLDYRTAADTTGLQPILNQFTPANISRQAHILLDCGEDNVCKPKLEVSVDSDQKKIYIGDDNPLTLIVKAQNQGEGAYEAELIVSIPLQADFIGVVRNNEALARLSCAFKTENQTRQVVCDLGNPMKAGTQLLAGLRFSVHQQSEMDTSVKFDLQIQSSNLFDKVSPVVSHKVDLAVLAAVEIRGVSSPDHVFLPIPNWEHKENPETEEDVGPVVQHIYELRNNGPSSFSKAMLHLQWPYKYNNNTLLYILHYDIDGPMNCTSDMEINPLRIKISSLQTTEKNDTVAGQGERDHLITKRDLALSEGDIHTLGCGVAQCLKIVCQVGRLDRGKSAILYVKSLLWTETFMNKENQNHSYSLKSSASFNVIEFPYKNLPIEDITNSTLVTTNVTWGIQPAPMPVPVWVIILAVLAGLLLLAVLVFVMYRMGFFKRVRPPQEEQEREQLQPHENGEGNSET
T1 sequence (P05106 27-788, chain 2 of 2): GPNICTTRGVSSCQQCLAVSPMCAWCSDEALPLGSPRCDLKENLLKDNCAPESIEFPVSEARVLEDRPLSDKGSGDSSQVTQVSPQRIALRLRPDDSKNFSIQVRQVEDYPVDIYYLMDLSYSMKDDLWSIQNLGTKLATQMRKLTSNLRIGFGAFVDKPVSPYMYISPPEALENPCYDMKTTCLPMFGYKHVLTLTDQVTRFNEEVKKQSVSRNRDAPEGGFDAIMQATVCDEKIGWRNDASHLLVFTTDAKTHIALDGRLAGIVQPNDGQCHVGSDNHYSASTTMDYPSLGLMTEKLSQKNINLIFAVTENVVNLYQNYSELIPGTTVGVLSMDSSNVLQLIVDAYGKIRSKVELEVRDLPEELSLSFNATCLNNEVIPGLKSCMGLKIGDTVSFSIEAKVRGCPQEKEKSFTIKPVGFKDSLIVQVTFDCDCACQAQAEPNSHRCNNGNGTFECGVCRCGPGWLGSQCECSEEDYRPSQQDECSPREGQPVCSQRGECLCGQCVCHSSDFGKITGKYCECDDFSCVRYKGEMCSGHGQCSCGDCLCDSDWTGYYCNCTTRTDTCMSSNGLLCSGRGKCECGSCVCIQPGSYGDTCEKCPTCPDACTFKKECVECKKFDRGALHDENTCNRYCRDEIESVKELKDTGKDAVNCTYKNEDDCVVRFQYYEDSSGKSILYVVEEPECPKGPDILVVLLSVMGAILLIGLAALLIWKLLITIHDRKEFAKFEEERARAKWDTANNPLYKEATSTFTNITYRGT
Put plainly: flow cytometry on RD cells expressing alphaVbeta3; reference chimeric HLMC.
Method: (§1) The binding of NS0-derived HLMC Composite Human Antibody™ variants to rhabdomyosarcoma (RD) cells expressing alphaVbeta3 integrin was assessed in a flow cytometry binding assay. Briefly, a subconfluent monolayer of RD cells was prepared and incubated in serum free medium for 24 hours prior to harvest. […] Cells were resuspended into a suitable volume of cold FACS buffer (1% FBS/0.01% sodium azide/PBS) to yield a final cell density of 4×10⁶ cells/ml.
(§2) The plates were incubated at 4° C. for 1 hour. Cells were washed with FACS buffer, resuspended in 100 μl of secondary antibody (Sigma Cat. No. P8047, goat anti-human IgG (γ chain specific; PE conjugated) and incubated for 1 hour at 4° C. Cells were washed twice, resuspended in a final volume of 175 μl FACS buffer and transferred to FACS tubes. Fluorescence was measured by flow cytometry and data plotted as normalized % positive events (gated in R2).

Assay [2] has as its target T1, alphaVbeta3 integrin, native human, on …. Put plainly: flow cytometry on RD cells expressing alphaVbeta3, PE anti-human IgG; EC50 = concentration where 50% of cells gated in R2. On the technique in general: A flow cytometer gives signals particle by particle.
Method: as §1, §2

B1: VH3/Vκ2 Composite Human Antibody variant of HLMC (antibody, human IgG1, kappa, V domains shown)
VH: QAQLVQSGAEVKKPGASVKVSCKASGYLFSNSWMNWVKQRRGAGLEWIGRIFPGDGDTNYNGKFKGRATITADKSTSTAYMELSSLRSEDTAVYFCARWGLTRDRRLYLDYWGQGTTVTVSS
VL: DIVMTQSPDSLAVSLGERATINCKSSQSLLYSSNQKNYLAWYQQKPGQAPRLLIYWASTRESGVPDRFTGSGSGTDFTLTISSLQAEDVAVYYCKQYYTYPLTFGQGTKLEIKR
notes: also called VH3/Vk2
Turning to B1, the “relative binding score (EC50 of variant divided by EC50 of chimeric HLMC)” value in assay [1] turned out to be 13.2 ratio. Also, the midpoint of the response in assay [2], the EC50, lay at 47.4 nM.

B2: VH2/Vκ1 Composite Human Antibody variant of HLMC (antibody, human IgG1, kappa, V domains shown)
VH: QAQLVQSGPEVKKPGASVKVSCKASGYLFSNSWMNWVKQRPGAGLEWIGRIFPGDGDTNYNGKFKGRATITADKSTSTAYMELSSLRSEDTAVYFCARWGLTRDRRLYLDYWGQGTTVTVSS
VL: DIVMTQSPDSLVVSLGERATINCKSSQSLLYSSNQKNYLAWYQQKSGQAPRLLIYWASTRESGVPDRFTGSGSGTDFTLTISSLQAEDVAVYYCKQYYTYPLTFGQGTKLEIKR
notes: also called VH2/Vk1
Take B2: the “relative binding score (EC50 of variant divided by EC50 of chimeric HLMC)” value in assay [1] is 1.27 ratio. The molecule further returned a 50% effective concentration (EC50) in assay [2] of 4.55 nM.

B3: VH2/Vκ3 Composite Human Antibody variant of HLMC (antibody, human IgG1, kappa, V domains shown)
VH: QAQLVQSGPEVKKPGASVKVSCKASGYLFSNSWMNWVKQRPGAGLEWIGRIFPGDGDTNYNGKFKGRATITADKSTSTAYMELSSLRSEDTAVYFCARWGLTRDRRLYLDYWGQGTTVTVSS
VL: DIVMTQSPDSLAVSLGERATINCKSSQSLLYSSNQKNYLAWYQQKPGQAPRLLIYWASTRESGVPDRFSGSGSGTDFTLTISSLQAEDVAVYYCKQYYTYPLTFGQGTKLEIKR
notes: also called VH2/Vk3
Regarding B3, the “relative binding score (EC50 of variant divided by EC50 of chimeric HLMC)” value in assay [1] was determined as 1.03 ratio. The 50% effective concentration (EC50) in assay [2] amounted to 3.7 nM.

B4: VH2/Vκ2 Composite Human Antibody variant of HLMC (antibody, human IgG1, kappa, V domains shown)
VH: QAQLVQSGPEVKKPGASVKVSCKASGYLFSNSWMNWVKQRPGAGLEWIGRIFPGDGDTNYNGKFKGRATITADKSTSTAYMELSSLRSEDTAVYFCARWGLTRDRRLYLDYWGQGTTVTVSS
VL: DIVMTQSPDSLAVSLGERATINCKSSQSLLYSSNQKNYLAWYQQKPGQAPRLLIYWASTRESGVPDRFTGSGSGTDFTLTISSLQAEDVAVYYCKQYYTYPLTFGQGTKLEIKR
notes: also called VH2/Vk2
B4: in assay [1], the “relative binding score (EC50 of variant divided by EC50 of chimeric HLMC)” value was 1.37 ratio. A half-maximal response in assay [2] (EC50) required 4.92 nM.

B5: VH4/Vκ3 Composite Human Antibody variant of HLMC (antibody, human IgG1, kappa, V domains shown)
VH: QAQLVQSGAEVKKPGASVKVSCKASGYLFSNSWMNWVKQRRGAGLEWIGRIFPGDGDTNYNGKFKGRVTITADKSTSTAYMELSSLRSEDTAVYFCARWGLTRDRRLYLDYWGQGTTVTVSS
VL: DIVMTQSPDSLAVSLGERATINCKSSQSLLYSSNQKNYLAWYQQKPGQAPRLLIYWASTRESGVPDRFSGSGSGTDFTLTISSLQAEDVAVYYCKQYYTYPLTFGQGTKLEIKR
notes: also called VH4/Vk3
With B5, in assay [1], the “relative binding score (EC50 of variant divided by EC50 of chimeric HLMC)” value stood at 0.57 ratio. Further, in assay [2], the midpoint of the response, the EC50, lay at 2.03 nM.

B6: VH3/Vκ3 Composite Human Antibody variant of HLMC (antibody, human IgG1, kappa, V domains shown)
VH: QAQLVQSGAEVKKPGASVKVSCKASGYLFSNSWMNWVKQRRGAGLEWIGRIFPGDGDTNYNGKFKGRATITADKSTSTAYMELSSLRSEDTAVYFCARWGLTRDRRLYLDYWGQGTTVTVSS
VL: DIVMTQSPDSLAVSLGERATINCKSSQSLLYSSNQKNYLAWYQQKPGQAPRLLIYWASTRESGVPDRFSGSGSGTDFTLTISSLQAEDVAVYYCKQYYTYPLTFGQGTKLEIKR
notes: also called VH3/Vk3
Turning to B6, the “relative binding score (EC50 of variant divided by EC50 of chimeric HLMC)” value in assay [1] is 0.87 ratio. In assay [2], this molecule gave a half-maximal effective concentration (EC50) of 3.13 nM.

B7: VH1/Vκ3 Composite Human Antibody variant of HLMC (antibody, human IgG1, kappa, V domains shown)
VH: QAQLVQSGPELKKPGASVKVSCKASGYLFSNSWMNWVKQRPGAGLEWIGRIFPGDGDTNYNGKFKGRATITADKSTSTAYMELSSLRSEDSAVYFCARWGLTRDRRLYLDYWGQGTTVTVSS
VL: DIVMTQSPDSLAVSLGERATINCKSSQSLLYSSNQKNYLAWYQQKPGQAPRLLIYWASTRESGVPDRFSGSGSGTDFTLTISSLQAEDVAVYYCKQYYTYPLTFGQGTKLEIKR
notes: also called VH1/Vk3
In the case of B7, the “relative binding score (EC50 of variant divided by EC50 of chimeric HLMC)” value in assay [1] was found to be 1.14 ratio. This molecule also gave an EC50 in assay [2] of 4.08 nM.

B8: VH3/Vκ1 Composite Human Antibody variant of HLMC (antibody, human IgG1, kappa, V domains shown)
VH: QAQLVQSGAEVKKPGASVKVSCKASGYLFSNSWMNWVKQRRGAGLEWIGRIFPGDGDTNYNGKFKGRATITADKSTSTAYMELSSLRSEDTAVYFCARWGLTRDRRLYLDYWGQGTTVTVSS
VL: DIVMTQSPDSLVVSLGERATINCKSSQSLLYSSNQKNYLAWYQQKSGQAPRLLIYWASTRESGVPDRFTGSGSGTDFTLTISSLQAEDVAVYYCKQYYTYPLTFGQGTKLEIKR
notes: also called VH3/Vk1
B8: the “relative binding score (EC50 of variant divided by EC50 of chimeric HLMC)” value in assay [1] worked out at 1.35 ratio. It took 4.85 nM to reach a half-maximal effect in assay [2] (EC50).

B9: VH5/Vκ1 Composite Human Antibody variant of HLMC (antibody, human IgG1, kappa, V domains shown)
VH: QAQLVQSGAEVKKPGASVKVSCKASGYLFSNSWMNWVKQRRGAGLEWIGRIFPGDGDTNYNGKFKGRVTITADKSTSTAYMELSSLRSEDTAVYYCARWGLTRDRRLYLDYWGQGTTVTVSS
VL: DIVMTQSPDSLVVSLGERATINCKSSQSLLYSSNQKNYLAWYQQKSGQAPRLLIYWASTRESGVPDRFTGSGSGTDFTLTISSLQAEDVAVYYCKQYYTYPLTFGQGTKLEIKR
notes: also called VH5/Vk1
For the molecule B9, the “relative binding score (EC50 of variant divided by EC50 of chimeric HLMC)” value in assay [1] worked out at 1.23 ratio. The molecule also had an EC50 in assay [2] of 4.42 nM.

B10: VH4/Vκ1 Composite Human Antibody variant of HLMC (antibody, human IgG1, kappa, V domains shown)
VH: QAQLVQSGAEVKKPGASVKVSCKASGYLFSNSWMNWVKQRRGAGLEWIGRIFPGDGDTNYNGKFKGRVTITADKSTSTAYMELSSLRSEDTAVYFCARWGLTRDRRLYLDYWGQGTTVTVSS
VL: DIVMTQSPDSLVVSLGERATINCKSSQSLLYSSNQKNYLAWYQQKSGQAPRLLIYWASTRESGVPDRFTGSGSGTDFTLTISSLQAEDVAVYYCKQYYTYPLTFGQGTKLEIKR
notes: also called Vh4/Vk1; VH4/Vk1
Regarding B10, the “relative binding score (EC50 of variant divided by EC50 of chimeric HLMC)” value in assay [1] is 0.87 ratio. In assay [2], the EC50 is 3.12 nM.

B11: VH5/Vκ3 Composite Human Antibody variant of HLMC (antibody, human IgG1, kappa, V domains shown)
VH: QAQLVQSGAEVKKPGASVKVSCKASGYLFSNSWMNWVKQRRGAGLEWIGRIFPGDGDTNYNGKFKGRVTITADKSTSTAYMELSSLRSEDTAVYYCARWGLTRDRRLYLDYWGQGTTVTVSS
VL: DIVMTQSPDSLAVSLGERATINCKSSQSLLYSSNQKNYLAWYQQKPGQAPRLLIYWASTRESGVPDRFSGSGSGTDFTLTISSLQAEDVAVYYCKQYYTYPLTFGQGTKLEIKR
notes: also called VH5/Vk3
On to B11, for which the “relative binding score (EC50 of variant divided by EC50 of chimeric HLMC)” value in assay [1] came to 0.88 ratio. For the same molecule, the EC50 in assay [2] was found to be 3.15 nM.

B12: VH1/Vκ2 Composite Human Antibody variant of HLMC (antibody, human IgG1, kappa, V domains shown)
VH: QAQLVQSGPELKKPGASVKVSCKASGYLFSNSWMNWVKQRPGAGLEWIGRIFPGDGDTNYNGKFKGRATITADKSTSTAYMELSSLRSEDSAVYFCARWGLTRDRRLYLDYWGQGTTVTVSS
VL: DIVMTQSPDSLAVSLGERATINCKSSQSLLYSSNQKNYLAWYQQKPGQAPRLLIYWASTRESGVPDRFTGSGSGTDFTLTISSLQAEDVAVYYCKQYYTYPLTFGQGTKLEIKR
notes: also called VH1/Vk2
Regarding B12, in assay [1], the “relative binding score (EC50 of variant divided by EC50 of chimeric HLMC)” value is 1.52 ratio. Moreover, the EC50 in assay [2] came to 5.43 nM.
